Assay results published in paper PMC12461897 (mAbs, 2025).

Molecular target: C18-V peptide presented by HLA-A*02:01 on peptide-pulsed T2 cells (Homo sapiens HLA-A*02:01 and B2M (T2 …))
Test: flow cytometry on cells

Row | Binder | binding result
1 | MUR35 Fab (anti-C18-MHC TCR-mimic antibody clone MUR35) (Fab, V domains shown) VH: EVQLQQSGPELVKPGASVKISCKASGYTFTDHFMNWVRQSHGKSLEWIGDINPNNGGTSYNQKFKGKATLTVDKSSSTAFMEVRSLTSDDSAVYYCARRGYYGSFDYWGQGTTLTVSS VL: EIVMTQSPATLSLSPGERATLSCRASQGVSSSYFSWYQQTPGQAPRLLISGASTRATGIPARFSGSGSGTDFTLTISSLQPEDFAVYYCQQDYNLPYTFGQGTKLEIK | binds
2 | MUR14 Fab (anti-C18-MHC antibody clone MUR14) (Fab, V domains shown) VH: EVQLQQSGPELVKPGASVKISCKASGYTFTDYFMNWVKQSHGKSLEWIGDINPNNGGTSYNQKFKGKATLTVDKSSSTAYMELRSLTSEDSAVYYCARGLYDGYYVGFAYWGQGTLVTVSA VL: EIVMTQSPATLSLSPGERATLSCRASQSVSSSYLSWYQQKPGQAPRLLIYGASTRATGLPARFSGSGSGTDFTLTISSLQPEDFAVYYCHQDYNLPYTFGQGTKLEIK | binds
